From US20180291072 come the findings set out here.

In data set [1] the target is type II fusion peptide (pro-apoptotic peptide-linker-ferritin monomer fragment-linker-GFP fusion polypeptide).
Data set [2] deals with KLAK-sFt-GFP fusion peptide (pro-apoptotic peptide-ferritin monomer fragment-linker-GFP fusion polypeptide).
Data set [3] has as its target sFt-GFP fusion peptide.
Data set [4] addresses wFt-GFP fusion peptide.

B1: Recombinant MMP-2 (protein)
chain: YNFFPRKPKWDKNQITYRIIGYTPDLDPETVDDAFARAFQVWSDVTPLRFSRIHDGEADIMINFGRWEHGDGYPFDGKDGLLAHAFAPGTGVGGDSHFDDDELWTLGEGQVVRVKYGNADGEYCKFPFLFNGKEYNSCTDTGRSDGFLWCSTTYNFEKDGKYGFCPHEALFTMGGNAEGQPCKFPFRFQGTSYDSCTTEGRTDGYRWCGTTEDYDRDKKYGFCPETAMSTVGGNSEGAPCVFPFTFLGNKYESCTSAGRSDGKMWCATTANYDDDRKWGFCPDQGYSLFLVAAHEFGHAMGLEHSQDPGALMAPIYTYTKNFRLSQDDIKGIQELYGASPDIDLGTGPTPTLGPVTPEICKQDIVFDGIAQIRGEIFFFKDRFIWRTVTPRDKPMGPLLVATFWPELPEKIDAVYEAPQEEKAVFFAGNEYWIYSASTLERGYPKPLTSLGLPPDVQRVDAAFNWSKNKKTYIFAGDKFWRYNEVKKKMDPGFPKLIADAWNAIPDNLDAVVDLQGGGHSYFFKGAYYLKLENQSLKSVKFGSIKSDWLGC
Turning to B1, the “linker cleavage, SDS-PAGE of products” value was “each linker of type I fusion peptide and type II fusion peptide was cleaved, and products generated by the linker cleavage were observed in a concentration-dependent manner” in data set [1]; “each linker of type I fusion peptide and type II fusion peptide was cleaved, and products generated by the linker cleavage were observed in a concentration-dependent manner” in data set [2]. The “linker cleavage, SDS-PAGE” value in data set [3] and in data set [4] was “sFt-GFP was more easily cleaved by MMP-2 as compared with wFt-GFP” in each case.
